Assay results published in article PMC3256231.

Assays:
[1] = biological target: M protein M3.22 (Streptococcus pyogenes); assay: radioligand binding; 250 µl of streptococci (10^8 bacteria per ml in PBS with 0.05% Tween 20), before and after hyaluronidase treatment, incubated 45 min with 30 ng (100,000 cpm) of 125I-labelled collagen IV; washed, radioactivity of the pellet counted; cut-off 20% bound ligand
[2] = biological target: M protein stG120.1 (Streptococcus dysgalactiae subsp. equisimilis); assay: as above
[3] = biological target: human collagen IV (immobilized, SPR) (human) (UniProt P02462); assay: SPR; human collagen IV immobilised (400 RU); recombinant M proteins injected for 2 min at 60 µl/min; apparent constants, Langmuir model for 1:1 interactions (BiaEvaluation 3.0)

Substance: 125I-labelled collagen IV (from human placenta, Sigma-Aldrich) (from UniProt P02462 173-1669; P08572 184-1712) (complex)
- percent of the added collagen IV bound (% of the added collagen IV) [1]: > 20
- percent bound ligand (% bound ligand) [2]: 56

Substance: recombinant M protein M31.5 (natural protein)
- Kd [3]: 0.6 nM

Substance: recombinant M protein M55 (from UniProt Q54840 1-550) (natural protein)
- Kd [3]: 5 nM

Substance: recombinant M protein stG2078 (natural protein)
- SPR response [3]: < 4 RU
